Data: patent EP0723402B1

Target: cyclin/cdk2 complexes immunoprecipitated from HeLa cell extracts by cdk2 antisera (UniProt P24941)
Assay: cell-based or functional assay

- half maximal inhibition of histone H1 kinase activity: 250 ng
Substance: GST-SDI-1 fusion protein (Schistosoma japonicum glutathione S-transferase amino acids 1-226, hinge Pro-Arg-Gly-Asp-Pro-Pro-Ala, SDI-1)
